T1: SIRT1 NTD(3HB) (Homo sapiens, UniProt Q96EB6)
T1 chain: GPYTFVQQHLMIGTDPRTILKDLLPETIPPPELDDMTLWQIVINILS

T2: SIRT1 NTD(3HB)-CD (Homo sapiens, UniProt Q96EB6)
T2 chain: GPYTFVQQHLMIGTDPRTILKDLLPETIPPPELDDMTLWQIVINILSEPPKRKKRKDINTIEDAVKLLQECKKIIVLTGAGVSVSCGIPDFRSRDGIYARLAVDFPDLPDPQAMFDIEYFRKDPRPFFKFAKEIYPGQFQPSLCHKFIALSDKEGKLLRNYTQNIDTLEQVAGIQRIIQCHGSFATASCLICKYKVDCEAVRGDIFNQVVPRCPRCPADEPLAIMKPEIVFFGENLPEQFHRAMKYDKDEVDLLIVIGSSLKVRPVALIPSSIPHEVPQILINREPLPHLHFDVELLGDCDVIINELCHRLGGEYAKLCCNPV

T3: SIRT1 CD (Homo sapiens, UniProt Q96EB6)
T3 chain: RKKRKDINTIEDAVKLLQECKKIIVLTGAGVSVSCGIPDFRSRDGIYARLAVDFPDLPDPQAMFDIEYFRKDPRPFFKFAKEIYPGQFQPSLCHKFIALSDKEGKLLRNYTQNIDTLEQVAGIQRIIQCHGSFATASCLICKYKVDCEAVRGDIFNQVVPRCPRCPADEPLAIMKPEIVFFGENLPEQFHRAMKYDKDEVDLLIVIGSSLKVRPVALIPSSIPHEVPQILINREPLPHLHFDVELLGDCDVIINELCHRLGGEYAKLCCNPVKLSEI


How the values were obtained:
Test in all cases: FP
SIRT1 NTD(3HB) = molecular target: T1, SIRT1 NTD(3HB)
SIRT1 NTD(3HB)-CD = molecular target: T2, SIRT1 NTD(3HB)-CD
SIRT1 CD = molecular target: T3, SIRT1 CD

Row | Binder | Kd (SIRT1 NTD(3HB)) [nM] | Kd (SIRT1 NTD(3HB)-CD) [nM] | Kd (SIRT1 CD) [nM]
1 | PPARγ LBD (protein) PESADLRALAKHLYDSYIKSFPLTKAKARAILTGKTTDKSPFVIYDMNSLMMGEDKIKFKHITPLQEQSKEVAIRIFQGCQFRSVEAVQEITEYAKSIPGFVNLDLNDQVTLLKYGVHEIIYTMLASLMNKDGVLISEGQGFMTREFLKSLRKPFGDFMEPKFEFAVKFNALELDDSDLAIFIAVIILSGDRPGLLNVKPIEDIQDNLLQALELQLKLNHPESSQLFAKLLQKMTDLRQIVTEHVQLLQVIKKTETDMSLHPLLQEIYKDLY | 6550 | 240 | 1620
2 | PPARγ DBD-LBD (protein, Rosiglitazone) AIECRVCGDKASGFHYGVHACEGCKGFFRRTIRLKLIYDRCDLNCRIHKKSRNKCQYCRFQKCLAVGMSHNAIRFGRMPQAEKEKLLAEISSDIDQLNPESADLRALAKHLYDSYIKSFPLTKAKARAILTGKTTDKSPFVIYDMNSLMMGEDKIKFKHITPLQEQSKEVAIRIFQGCQFRSVEAVQEITEYAKSIPGFVNLDLNDQVTLLKYGVHEIIYTMLASLMNKDGVLISEGQGFMTREFLKSLRKPFGDFMEPKFEFAVKFNALELDDSDLAIFIAVIILSGDRPGLLNVKPIEDIQDNLLQALELQLKLNHPESSQLFAKLLQKMTDLRQIVTEHVQLLQVIKKTETDMSLHPLLQEIYKDLY | – | 690 | –
3 | PPARγ LBD (protein) PESADLRALAKHLYDSYIKSFPLTKAKARAILTGQTTDKSPFVIYDMNSLMMGEDKIKFKHITPLQEQSKEVAIRIFQGCQFRSVEAVQEITEYAKSIPGFVNLDLNDQVTLLKYGVHEIIYTMLASLMNKDGVLISEGQGFMTREFLKSLRKPFGDFMEPKFEFAVKFNALELDDSDLAIFIAVIILSGDRPGLLNVKPIEDIQDNLLQALELQLKLNHPESSQLFAKLLQKMTDLRQIVTEHVQLLQVIKKTETDMSLHPLLQEIYKDLY | – | 560 | –
4 | PPARγ LBD (protein) PESADLRALAKHLYDSYIKSFPLTKAKARAILTGKTTDKSPFVIYDMNSLMMGEDKIKFQHITPLQEQSKEVAIRIFQGCQFRSVEAVQEITEYAKSIPGFVNLDLNDQVTLLKYGVHEIIYTMLASLMNKDGVLISEGQGFMTREFLKSLRKPFGDFMEPKFEFAVKFNALELDDSDLAIFIAVIILSGDRPGLLNVKPIEDIQDNLLQALELQLKLNHPESSQLFAKLLQKMTDLRQIVTEHVQLLQVIKKTETDMSLHPLLQEIYKDLY | – | 210 | –
5 | PPARγ DBD-LBD (protein) AIECRVCGDKASGFHYGVHACEGCKGFFRRTIRLKLIYDRCDLNCRIHKKSRNKCQYCRFQKCLAVGMSHNAIRFGRMPQAEKEKLLAEISSDIDQLNPESADLRALAKHLYDSYIKSFPLTKAKARAILTGKTTDKSPFVIYDMNSLMMGEDKIKFKHITPLQEQSKEVAIRIFQGCQFRSVEAVQEITEYAKSIPGFVNLDLNDQVTLLKYGVHEIIYTMLASLMNKDGVLISEGQGFMTREFLKSLRKPFGDFMEPKFEFAVKFNALELDDSDLAIFIAVIILSGDRPGLLNVKPIEDIQDNLLQALELQLKLNHPESSQLFAKLLQKMTDLRQIVTEHVQLLQVIKKTETDMSLHPLLQEIYKDLY | – | 1900 | –
6 | PPARγ LBD (protein) PESADLRALAKHLYDSYIKSFPLTKAKARAILTGKTTDKSPFVIYDMNSLMMGEDKIKFKHITPLDEQSKEVAIRIFQGCQFRSVEAVQEITEYAKSIPGFVNLDLNDQVTLLKYGVHEIIYTMLASLMNKDGVLISEGQGFMTREFLKSLRKPFGDFMEPKFEFAVKFNALELDDSDLAIFIAVIILSGDRPGLLNVKPIEDIQDNLLQALELQLKLNHPESSQLFAKLLQKMTDLRQIVTEHVQLLQVIKKTETDMSLHPLLQEIYKDLY | – | 111000 | –
7 | PPARγ LBD (protein) PESADLRALAKHLYDSYIKSFPLTKAKARAILTGKTTDKSPFRIYDMNSLMMGEDKIKFKHITPLQEQSKEVAIRIFQGCQFRSVEAVQEITEYAKSIPGFVNLDLNDQVTLLKYGVHEIIYTMLASLMNKDGVLISEGQGFMTREFLKSLRKPFGDFMEPKFEFAVKFNALELDDSDLAIFIAVIILSGDRPGLLNVKPIEDIQDNLLQALELQLKLNHPESSQLFAKLLQKMTDLRQIVTEHVQLLQVIKKTETDMSLHPLLQEIYKDLY | – | 810 | –
8 | PPARγ DBD-LBD (protein, NAD+) AIECRVCGDKASGFHYGVHACEGCKGFFRRTIRLKLIYDRCDLNCRIHKKSRNKCQYCRFQKCLAVGMSHNAIRFGRMPQAEKEKLLAEISSDIDQLNPESADLRALAKHLYDSYIKSFPLTKAKARAILTGKTTDKSPFVIYDMNSLMMGEDKIKFKHITPLQEQSKEVAIRIFQGCQFRSVEAVQEITEYAKSIPGFVNLDLNDQVTLLKYGVHEIIYTMLASLMNKDGVLISEGQGFMTREFLKSLRKPFGDFMEPKFEFAVKFNALELDDSDLAIFIAVIILSGDRPGLLNVKPIEDIQDNLLQALELQLKLNHPESSQLFAKLLQKMTDLRQIVTEHVQLLQVIKKTETDMSLHPLLQEIYKDLY | – | 1670 | –
9 | PPARγ LBD (protein) PESADLRALAKHLYDSYIKSFPLTKAKARAIRTGKTTDKSPFVIYDMNSLMMGEDKIKFKHITPLQEQSKEVAIRIFQGCQFRSVEAVQEITEYAKSIPGFVNLDLNDQVTLLKYGVHEIIYTMLASLMNKDGVLISEGQGFMTREFLKSLRKPFGDFMEPKFEFAVKFNALELDDSDLAIFIAVIILSGDRPGLLNVKPIEDIQDNLLQALELQLKLNHPESSQLFAKLLQKMTDLRQIVTEHVQLLQVIKKTETDMSLHPLLQEIYKDLY | – | 170 | –

Reference: paper PMC12594183 (2026)
